Assay results from patent publication US6734169B2, “Apolipoprotein A-I agonists and their use to treat dyslipidemic disorders” (priority 1997, dated 2004).
Square brackets hold non-standard residues; d marks the D form. Primed or numbered codes have the meaning given here. Ends that are not written are not given here. Nal″ = Z is Nal (naphthylalanine; Nal = Z in the sequences is Nal; Aib = CC(C)(N)C(=O)O

What was measured:
[1] = Circular dichroism: degree of helicity; format: physicochemical; conditions: for He (%) TFE / He (%) free / He (%) mics / He (%) SUVs: percent helicity, 37° C.; for He (%) TFE: 5 μM peptide, 90% vol TFE; for He (%) free: unbound peptide, 5 μM in 5 mM phosphate buffer, pH 7.4; for He (%) mics: peptide-micelle complexes (1-myristoyl-2-hydroxy-sn-glycero-3-phosphatidyl choline, Ri=100); for He (%) SUVs: peptide-SUV complexes (20:1 EPC:Chol., Ri=50)
Experimental: Far UV circular dichroism spectra were recorded between 190 and 260 nm (in 0.5 nm or 0.2 nm increments) with a AVIV62DS spectrometer (AVIV Associates, Lakewood, N.J., USA) equipped with a thermoelectric cell holder and sample changer. The instrument was calibrated with (+)-10-[…]. Between one and three scans were collected for each sample, using 10 cm, 5 cm, 1 cm and 0.1 cm path length quartz Suprasil cells, respectively, for peptide concentrations of 10^−7 M to 10^−4 M. The bandwidth was fixed at 1.5 nm and the scan speed to 1s per wavelength step. The reported data are the mean of at least 2 or 3 independent measurements.
After background subtraction, spectra were converted to molar ellipticity (θ) per residue in […]. The peptide concentration was determined by amino acid analysis and also by absorption spectrometry on a Perkin Elmer Lambda 17 UV/Visible spectrophotometer when the peptide contained a chromophore (tryptophan, dansyl, naphthylalanine).
CD spectra were obtained with free, unbound peptide (5 μM in 5 mM phosphate buffer, pH 7.4); with peptide-SUV complexes (20:1 EPC:Chol., Ri=50); with peptide-micelle complexes (1-myristoyl-2-hydroxy-sn-glycero-3-phosphatidyl choline, Ri=100); and with free, unbound peptide in the presence of 2,2,2-trifluoroethanol (TFE) (5 μM peptide, 90% vol TFE).
The SUVs were obtained by dispersing the lipids (10 mM, 20:1 EPC:Chol., Avanti Polar Lipids, AL) in phosphate buffer (5 mM, pH 7.4) with bubbling N2 for 5 min., followed by sonication (1.5 hr.) in a bath sonicator. The homogeneity of the preparation was checked by FPLC.
The micelles were obtained by dispersing the lipid (6 mM 1-myristoyl-2-hydroxy-sn-glycero-3-phosphatidyl choline, Avanti Polar Lipids, AL) in phosphate buffer (5 mM, pH 7.4) with bubbling N2 for 5 min., followed by vortexing.
To obtain the peptide-SUV complexes, SUVs were added to the peptide (5 μM in 5 mM phosphate buffer, pH 7.4) at a phospholipid-peptide molar ratio (Ri) of […].
To obtain the peptide-micelle complexes, micelles were added to the peptide (5 μM in 5 mM phosphate buffer, pH 7.4) at a Ri of 100.
All spectra were recorded at 37° C. The stability of peptide 210 (SEQ ID NO:210) as a function of temperature (both free in buffer and in micelles) was determined by recording spectra at a series of different temperatures.
The degree of helicity of the peptides in the various conditions was determined from the mean residue ellipticity at 222 nm (Chen et al., 1974, Biochemistry 13:3350-3359) or by comparing the CD spectra obtained to reference spectra available on databases (16 helical reference spectra from Provencher & Glockner, 1981, Biochemistry 20:33-37; denatured protein reference spectra from Venyaminov et al., 1993, Anal. Biochem. 214:17-24) using the CONTIN curve-fitting algorithm version 2DP, CD-1 pack (August 1982) (Provencher, 1982, Comput. Phys. Commun. 27:213-227, 229-242). Acceptable fit was determined using the statistical analysis methodology provided by the CONTIN algorithm. The error of all methods was ±5% helicity.

[2] = Lipid binding by fluorescence spectroscopy; conditions: for I/Io: peptide 2 μM, 37° C.
Experimental: The lipid binding properties of the peptides synthesized in Section 6, supra, were tested by fluorescence measurements with labeled peptides, in the present case tryptophan (Trp or W) or naphthylalanine (Nal). The fluorescence spectra were recorded on a Fluoromax from Spex (Jobin-Yvon) equipped with a Xenon lamp of 150 W, two monochromators (excitation and emission), a photomultiplier R-928 for detection sensitive in the red up to 850 nm and a thermoelectric magnetic stirred cell holder. Quartz Suprasil cuvettes were used for measurements in the micromolar concentration range. A device of variable slits (from 0.4 to 5 nm) allows modulation of the incident and emitted intensities according to the concentration of peptide used. The reported values are in general the average of between 2 to 4 spectra. The peptide concentration is determined by absorption spectrometry on a Philips PU 8800 using the absorption band of the Trp (∈280 nm=5,550 M^−1 cm^−1 in Tris buffer) or the Nal (∈224 nm=92,770 M^−1 cm^−1 in methanol).
Fluorescence spectra of the peptides were recorded between 290 nm and 450 nm in Tris-HCl buffer (20 mM, pH=7.5), in the presence and absence of lipidic vesicles. The small unilamellar vesicles were formed after rehydration in buffer of the lyophilized phospholipids, dispersion and tip sonification under a N2 stream. The lipids used were either Egg PC/Chol. (20:1) or POPC/Chol. (20:1). The spectra were recorded at a peptide concentration of 2 μM and at a temperature of 37° C. The fluorescence reference standard in the case of Trp was N-acetyltryptophanylamide (NATA).
Lipid binding studies were done through progressive lipidic vesicle addition to the peptide in solution at 2 μM (slits:5 nm in excitation and 1.5 nm in emission). Dilution effects were taken into account for the fluorescence intensity determination. The lipid concentrations were varied from 10 to 600 μM and the molar ratio of lipid to peptide (Ri) was varied from 5 to 300. The wavelength of excitation was set at 280 nm for both Trp and Nal.
The data were directly recorded and treated by an IBM-PC linked to the spectrofluorimeter through the DM3000F software from Spex. The spectra were corrected by substraction of the solvent contribution and by application of a coefficient given by the constructor taking into account the variation of the photomultiplier response versus the wavelength.
The fluorescence spectra of the peptides were characterized by the wavelength at their maximum of fluorescence emission and by their quantum yield compared to NATA in the case of peptides labeled with a tryptophan. The process of binding to lipids was analyzed by calculating the shift of the wavelength at the maximum of fluorescence emission, (λmax), and the variation of the relative fluorescence intensity of emission versus the lipid concentration. The relative fluorescence intensity is defined as the following ratio: (I-I0)λmax/I0λmax. I and I0 are both measured at the (λmax) corresponding to the initial free state of the peptide i.e., without lipids. I is the intensity at a defined lipid to peptide ratio and I0 is the same parameter measured in absence of lipids. The absence of these variations is relevant to the absence of interactions of the peptides with the lipids.

[3] = EPC/Chol (20:1) small unilamellar vesicles

Substance	He (%) TFE [1] [%]	He (%) free [1] [%]	He (%) mics [1] [%]	He (%) SUVs [1] [%]	other results
.klkgklaellenllerfldlvp [compound 107]	77	–	–	–	–
EWLEAFYKKVLEKLKELF* (Ac-EWLEAFYKKVLEKLKELF-NH2) [compound 239, reference compound]	–	44	49	–	–
GVLELFENLLERLLDALQKKLK [compound 145]	58	55	51	–	–
PVLDLFRELLEELKQKLK [peptide 210]	–	–	–	–	stability of the α-helical structure as a function of temperature ([1]; temperature range of 5°-45° C., data not shown): completely stable
PVLDLFRELLNELLEAZKQKLK (PVLDLFRELLNELLEA[Nal″]KQKLK) [peptide 10]	71	60	87	70	–
PVLDLFRELLNELZEALKQKLK (PVLDLFRELLNEL[Nal]EALKQKLK) [compound 27]	81	72	92	82	–
PVLDLFRELWEELKQKLK* (Ac-PVLDLFRELWEELKQKLK-NH2) [peptide 199]	–	–	–	–	lipid binding (burying of the tryptophan, fluorescence intensity exaltation) [2, 3]: binds very effectively; lipid to peptide molar ratio at which the burying of the tryptophan residue is maximal [2, 3]: about 100; I/Io ([2]; Lipid:Peptide Molar Ratio (Ri) 0): 0; λmax (nm) ([2]; Ri 5): 344 nm; I/Io ([2]; Ri 5): 8; λmax (nm) ([2]; Ri 10): 339 nm; I/Io ([2]; Ri 10): 8; λmax (nm) ([2]; Ri 30): 328 nm; I/Io ([2]; Ri 30): 18; I/Io ([2]; Ri 60): 22; λmax (nm) ([2]; Ri 100): 326 nm; I/Io ([2]; Ri 100): 27; λmax (nm) ([2]; Ri 200): 325 nm; I/Io ([2]; Ri 200): 41; λmax (nm) ([2]; maximum of tryptophan fluorescence emission, Ri 0 (in buffer, no lipid), 2 μM): 348 nm
PVLDLFRWLLNEXLEALKQKLK (PVLDLFRWLLNE[Aib]LEALKQKLK) [compound 108]	–	–	–	54	–
PVLDZFRELLNELLEALKQKLK (PVLD[Nal]FRELLNELLEALKQKLK) [compound 34]	62	58	67	68	–
pVLELFENLLERLLDALQKKLK ([dP]VLELFENLLERLLDALQKKLK) [compound 144]	95	89	88	–	–
pllellkellqellealkqklk ([dP][dL][dL][dE][dL][dL][dK][dE][dL][dL][dQ][dE][dL][dL][dE][dA][dL][dK][dQ][dK][dL][dK]) [compound 87]	100	100	–	–	–
pvldefreklneXlealkqklk ([dP][dV][dL][dD][dE][dF][dR][dE][dK][dL][dN][dE][Aib][dL][dE][dA][dL][dK][dQ][dK][dL][dK]) [compound 44]	–	20	86	–	–
pvldlfrellneXlealkqklk ([dP][dV][dL][dD][dL][dF][dR][dE][dL][dL][dN][dE][Aib][dL][dE][dA][dL][dK][dQ][dK][dL][dK]) [compound 96]	81	52	85	63	–
pvldlfrellnellealkqklk [compound 100]	98	83	92	–	–
